To fix the notation:
B1: human Izumo1 ectodomain E71A (Izumo1E71A-His10-SpyTag-LPETGG) (domain or fragment)
chain: CVICDPSVVLALKSLEKDYLPGHLDAKHHKAMMERVENAVKDFQELSLNADAYMGVVDEATLQKGSWSLLKDLKRITDSDVKGDLFVKELFWMLHLQKETFATYVARFQKEAYCPNKCGVMLQTLIWCKNCKKEVHACRKSYDCGERNVEVPQMEDMILDCELNWHQASEGLTDYSFYRVWGNNTETLVSKGKEATLTKPMVGPEDAGSYRCELGSVNSSPATIINFHVTVLP
modifications: glycosylated (sites not given); SpyTag joined by an isopeptide bond to a SpyCatcher polyprotein
B2: human Izumo1 ectodomain R160A (Izumo1R160A-His10-SpyTag-LPETGG) (domain or fragment)
chain: CVICDPSVVLALKSLEKDYLPGHLDAKHHKAMMERVENAVKDFQELSLNEDAYMGVVDEATLQKGSWSLLKDLKRITDSDVKGDLFVKELFWMLHLQKETFATYVARFQKEAYCPNKCGVMLQTLIWCKNCKKEVHACAKSYDCGERNVEVPQMEDMILDCELNWHQASEGLTDYSFYRVWGNNTETLVSKGKEATLTKPMVGPEDAGSYRCELGSVNSSPATIINFHVTVLP
modifications: glycosylated (sites not given); SpyTag joined by an isopeptide bond to a SpyCatcher polyprotein
B3: human Izumo1 ectodomain H157A (Izumo1H157A-His10-SpyTag-LPETGG) (domain or fragment)
chain: CVICDPSVVLALKSLEKDYLPGHLDAKHHKAMMERVENAVKDFQELSLNEDAYMGVVDEATLQKGSWSLLKDLKRITDSDVKGDLFVKELFWMLHLQKETFATYVARFQKEAYCPNKCGVMLQTLIWCKNCKKEVAACRKSYDCGERNVEVPQMEDMILDCELNWHQASEGLTDYSFYRVWGNNTETLVSKGKEATLTKPMVGPEDAGSYRCELGSVNSSPATIINFHVTVLP
modifications: glycosylated (sites not given); SpyTag joined by an isopeptide bond to a SpyCatcher polyprotein

human Juno ectodomain, wild type (Juno-His10-SpyTag-LPETGG) (human, glycosylated (sites not given); SpyTag joined by an isopeptide bond to a SpyCatcher polyprotein), sequence (chain, as listed by the source): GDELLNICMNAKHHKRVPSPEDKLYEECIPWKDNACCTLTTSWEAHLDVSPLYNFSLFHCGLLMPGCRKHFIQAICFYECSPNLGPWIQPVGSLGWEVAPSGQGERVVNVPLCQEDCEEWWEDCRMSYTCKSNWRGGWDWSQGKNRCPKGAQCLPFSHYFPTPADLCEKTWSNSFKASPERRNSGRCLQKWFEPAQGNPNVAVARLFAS

This test has as its target human Juno ectodomain, wild type (Juno-His10-SpyTag-LPETGG) (human, glycosylated (sites not given); SpyTag joined by an isopeptide bond to a SpyCatcher polyprotein). Put plainly: FACS. For orientation: Flow cytometry measures light scatter and fluorescence of single cells or particles in a stream.
For B1, binding was put at a Kd of 43 nM. With B2, the Kd worked out at 157 nM. Molecule B3 displayed a Kd of 243 nM.

As usually defined, the Kd is the free concentration of one partner at which half of the binding sites on the other are occupied at equilibrium, for simple one-to-one binding. Read a high Kd as weaker binding.
